Results reported in the supplement of paper PMC12636428.

Test system: Saccharomyces cerevisiae
Assay: transcriptional activation domain activity (GFP:mCherry ratio, weighted mean of sorted bins, harmonized to initial dataset scale) (arbitrary fluorescence ratio units); higher = stronger transcriptional activation
Conditions: beta-estradiol 1 µM; induction time 4 h
How it was run: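 Each value is an activation activity: the read-weighted mean of bin median fluorescence, averaged across barcodes, then mapped linearly to the initial dataset scale. The tiles, fused to an estradiol-inducible synthetic transcription factor, sat at the yeast URA3 locus in GFP-reporter diploids. Cells spent 4 hours at 30 °C in SC with 1 uM beta-estradiol before sorting into 8 GFP:mCherry bins, and tiles below 50 reads were removed.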

FFCFVFLAHYTWLIKHGFQTHLLELGSFFSDLSLIICFFLLIMHLFCVTPFFR
transcriptional activation domain activity: 68400

NIHLVNMAQVVVIFFHRLLYGIIPLFEITTCAFFPVLVSLWHLAYILFYVVMF
transcriptional activation domain activity: 69100

WLPFPESLGSSYRMPGIEPYVDFVMGRILAKKLPELLDSCQILMLRWKCLCFI
transcriptional activation domain activity: 63200

PPILVWMRYNAFFILYPLGAGSECLLTFFSLDEAHAWWPHYALLLKIILLIYI
transcriptional activation domain activity: 73800

KGKAAKSGWDDDEDEKKKEEGEGEGGDGGDKSGDIGAGGDGDKKDEASGNADG
transcriptional activation domain activity: 27500

MVFFFFFFHSVEFHFFLWYLSFFRFFFVFLLFPWLDWIGRAGIGLELLLSLFI
transcriptional activation domain activity: 47400

PRTASRRAARSARPRRQSSPRPKGRRSNTRPSKRASVSPAKDSDASDGDDERE
transcriptional activation domain activity: 19400

KFWFFLLFYYGFYNLTALLMVSQYFNLYSFHWWPKSIGGLWSTFFFWLFSMFL
transcriptional activation domain activity: 58400

NNIISNRKQASKEKRKIPRHIQTIDEKLINDSNYLAFLKFDDLENEKFHSSAS
transcriptional activation domain activity: 56600

PPPPPPPPPPGRGGAGHPPPPPPPPPPPAGGGGGPPPPPPPPPPSGGAPPPPP
transcriptional activation domain activity: < 6570

GKRAREESDEENDEEEEAEGEGAEKEGEEEEEEEEVKKPAAKRARTAKGAAAK
transcriptional activation domain activity: 13500

LVSALWVLNTLHSALMFHLVYHYLILNAFDLFELSQNVWSLPASMIVHLIMAF
transcriptional activation domain activity: 47500

SKEKLSAVENSHAIKLEIILEGIGSIMLSHPNDMQLLSRVVRLLVRVAIQFRR
transcriptional activation domain activity: 56500

MEPRLGHPALLVYSLLLLLLILRWKMFSFLCVVFQWRCIMLFLVFLVFCWGVG
transcriptional activation domain activity: 35900

MGLWARFICFVIVCLQITSLYCLFSCSPSFLYFKKIQPLFFTFFFFLLSLFPS
transcriptional activation domain activity: 52400

TSFVLYLKLNQVIAFSLRTIYSINKSKILLGFVGQQWEQHIVSELDSALNKWV
transcriptional activation domain activity: 37900

MAKSDPHQPGRIRAFKPKVSTGCKTCKIRRVKCDEAKPACKRCSSTGRKCDGY
transcriptional activation domain activity: 16300

YIPEHLRSYVLVAHLLEMCNLHTVFLPQLLDPLIVLCLQHRLTIQAFAFIKTR
transcriptional activation domain activity: 77300

MSGTNNSAAPPSYFDKAKDAMHSVVGNLTGHDDKETSSKPYVPTVSSACTAVV
transcriptional activation domain activity: 61800

MLPQFQEGNCEDLWNVLVWCTIPIPFDDCEAYPCDYQQNPYPNHINFWFYLFW
transcriptional activation domain activity: 55600

PKRGRGRPPKDPAAKAAAAAAAAEAEANGEKKPGRGRPRKNPVPSGEGGEAVP
transcriptional activation domain activity: 19600

SASEIRVDSFRKIMSIPLAIFTLRPRHVFVAVRRVCRSCTNYLVVLALYMALF
transcriptional activation domain activity: 51800

QAPQAGRGQGAQGGRTRHQAGGARAEEDEPQGARQEGRGGQGGGEEEARGGEG
transcriptional activation domain activity: 37600

EPKAEEPAPRKSDEGQGKDKEQPKEIKEEEQQRGRRPDKGKARVVVQGFAAEE
transcriptional activation domain activity: 23200

MNDCSAGCAGGQFPVGQDGLICIVEFNTITCVSTGSIVFLMLHSWLYFVLLIF
transcriptional activation domain activity: 71600

ASQFPWAQIEITWRCLTYLCFDSFLELPQYWMLRQKFLVEHALLAYAARYCLV
transcriptional activation domain activity: 54100

QQGGGAAASSSGAAQTTSDHVHKDEKEEDKDRDKKKEEEEKEKRKKRREKNKK
transcriptional activation domain activity: 23700

SRVSLTVFRFSYVWLSLIFAIPLLCAVLIELYFLMPLHAWMGPSEPHVVHLIQ
transcriptional activation domain activity: 46800

TVPVLVLVIYDWPRDRSNAYQVVLAISIWCWGVYQLLYIFLCGLYNPNFSTFR
transcriptional activation domain activity: 59700

PPPPPPPPPPPLSLLTTAIPPPPPPPPPLGGGPPPPPPPPPGPGGPPPPPPPP
transcriptional activation domain activity: 30700

VILYLLMLIGNVTVVSWIVSLFFLSRKSYLKLGFKMVLVRKWYFKNVCQYVDY
transcriptional activation domain activity: 67400

HNILHLFSICVFRYHMLYYDEVRYIWKRWRRRSTYWFFLNRYFNFFGNGAITV
transcriptional activation domain activity: 64600

WHTDLGIPSFGWTLLHELEGLLGRIEANWMEEVTVRTIVLLTSRLLSAVRDHD
transcriptional activation domain activity: 55200

RTTALGVWFLLIQSLWYFTFGALYIWFFCHTWEYLSTLLVFDYLLRFILCLMF
transcriptional activation domain activity: 68100

DIIPDHYKHKPISLYDPRKAPLLNQYRLIVPRSRNIIEVCQFIILLLLYCLSM
transcriptional activation domain activity: 78100

MSEPPRKRAKLACVTCNARRVKCDVTDRQPCTNCITGNVHCETRESKRGKHPR
transcriptional activation domain activity: 20300

VEAAEPEIEVPNKDSRPSKRGRKEKVIEEEDSAPVDKPVSKGKKAAPVAKTAL
transcriptional activation domain activity: 15300

DRMYNQISQVFDHLYARQDRTWGRVAEDFRSVLLIRWYFDAASLWVTLWCRYT
transcriptional activation domain activity: 48600

ISSISSIFPIFFPYFPSIYLIFFFIFFLPFFPSLPILLFLLFLLFLLFTLPLC
transcriptional activation domain activity: 43700

MFIFLFFIHLLSHLCFILILILLFSILLFYVPVICLSTFFILFYHHHLLCTHQ
transcriptional activation domain activity: 32200

PTASTIYEEAESQSSYLDDMFRTSQGGRPVTQNSISSIGQGPLRSSYSMAYDS
transcriptional activation domain activity: 51300

YECALGIYSCVSFFVGVFYYIFIIFLSPIIFILLIILPLRISFVLCMAILLFG
transcriptional activation domain activity: 28600

EKKRKRTEEEDAPKLKKKKTKSDLKRDSGGSSQEDSEAPAKKKKSSKSKKAKK
transcriptional activation domain activity: 35800

LRALCFEAIRNKGQSVMIARLLQRYMGQLTWLRGGNGVSLLVMVVRDVLLEMQ
transcriptional activation domain activity: 58900

GKAKASKTAGAGLAKASKAPKVPKAGGKGAKASKGAKAPKASKAAGAAGAKAS
transcriptional activation domain activity: 28400

SEEAQEEAQQPKKKKRTRASDMWKEEGKAEKKEKKKAKKGKKHSKLEEPAEKA
transcriptional activation domain activity: 14500

MPFNLPPRAIGVATRVLEELGLFNIYKSCIDTKILCIQRFVRLFAYGGSTLVL
transcriptional activation domain activity: 44200

MAQTTPESASSSQSTLARGKACLRCRKRKMRCDGAKPACGQCVKAHKPDACQY
transcriptional activation domain activity: 24400

AGGEAAAGGEAAAGEGAAAGGEAKAGEKAAGEGAKAGEEAAGEAKVEAAKPAA
transcriptional activation domain activity: 18400

QTDPEKKRVWENKILETLERRPSKKCDYILLRSEQLVGTALIVLVKSELTSVI
transcriptional activation domain activity: 54900

GLLSSCVLIVLVIHHPFLLSDNRHYTFYIWRRVYMFHPIVPYALIPAYLACAW
transcriptional activation domain activity: 66700

GLCRSGELLLPGAQYHRNPAVRKAWPGIFKWTRRNAMDVIATVWFWLTRADGL
transcriptional activation domain activity: 51100

ARVLGKKNTLEGLASTIRGTVRFVRETCYAVIYCMTRLDMQFYGFLELPGPLA
transcriptional activation domain activity: 39600

SWLRGYEVFKLQVSSTMIKCLRGMLCFIPVVCLGPNIVLLLGLPIQTQVKWFL
transcriptional activation domain activity: 61100

NELAVLVDGLNRVLLTHKDDIGIISHVMLAYMIAATRFKRLFVSGGGYMLFMP
transcriptional activation domain activity: 45800

KSKQKERERKRARAKANEKAKAEARKRKTKDGEKKEKRKQKEREKAKGKGKER
transcriptional activation domain activity: 55000

PLFRHQDSLLIVASNIGLVGMISILVYCTYAFSLQSVVKFYFIPYVLVNHWIV
transcriptional activation domain activity: 45200

GAVARAAHAAAPAGVRAAAPAPAGVHALAPAGAHALVHAPARAGPARALVLAG
transcriptional activation domain activity: 48800

SKRREIRKTKEARREGSERRDGEADSEEKAREGKGSKRRRRGTGRRAEEAAKG
transcriptional activation domain activity: 27400

RCGILLGSKNDGEGVDFVRVRGERIERGSSASIEEGIGEMGRSRPVRFGGGEE
transcriptional activation domain activity: 21500

TPVYIGPLDGGAGDAQHGRKGGESRFQITPRKTVRLGEDGKGRKVSVEQRIVC
transcriptional activation domain activity: 49400

RPQSKERGGRREDGAGTDEGDSSTHPSCSSHVGRQEGVFQTVQCKHYWVVKWE
transcriptional activation domain activity: 49900

ELVVLRFWSLKAIVFFFVLVLQTVSLGAGKGGGLYKDLFTLFLHILCILELCC
transcriptional activation domain activity: 61300

CFAMVQQIFAKLLIMFEPRLDIPLLKFYTLLYRSVYYAICRRQQLYQEDMIAA
transcriptional activation domain activity: 57700

GYCLKIRDRFFIFLWHCWVRGIVVTPFGSKIISGLSFESIPQSSCVLIQNVTI
transcriptional activation domain activity: 28400

RRDVTLMGGLCLHTIQGAYLAACAYFVVPFSLVVSLGFEALLLLFCFIFIFIF
transcriptional activation domain activity: 50400

MYNLNLFYFSFFLSLSLFLFFFPLPFFFRSVWFANLFFVLLFLYYVPFLSHSC
transcriptional activation domain activity: 58700

AAAKAAPAIEEEPQEEQPEEPDKAAAPKKRGRKRKSSGVGAATAAAAAVPRGP
transcriptional activation domain activity: 9830

ISLLVLGCWIPFIILMEGYLQSLTFESFPYPGLYCFTSQGSHIIYLCWVLIAI
transcriptional activation domain activity: 60200

PQHCLDLNFMMALLHTGYGMPLEREVKIAKKIKGNELGWCLGASLPLLSKESG
transcriptional activation domain activity: 84000

LLKKCLKSSFGKSNEVTTYCLEFFGNVYRWSEMYWSSTWPVLLLVHALKSKQK
transcriptional activation domain activity: 52700

GSVGDELVCVVKRARPIAPSSASNAIKVRRGDVRRAVIVRTKKAVRRPDGRLI
transcriptional activation domain activity: 29900

QQAHHNVSGPTSKTLLPFLPLHKLMLSNILSPNVRLLFPPLLPLQLSWILWAL
transcriptional activation domain activity: 61800

LQHLVVPILFLGPLYATYLNQTLPFQAFWDYDEYVLRKYFSFMGLRTYIIGPI
transcriptional activation domain activity: 52300
